These results are taken from PMC7721913 (The Journal of Cell Biology, 2020).

Assay [1] concerns SFPQ. The assay is described as follows: PRM-based quantification of KIF5 and KLC in SFPQ immunoprecipitations. It counts as binding, rat. Particulars: KIF5A vs KIF5B or KIF5C, KLC1 vs KLC2; three independent experiments.
Assay [2] deals with CB and distal axon compartments of DRG neurons. Nature of the assay: Western blot of KIF5 and KLC in cell body and distal axon lysates. It counts as cell-based, rat. Particulars: Campenot CB vs distal axon lysates. A general note: In western blotting, separated proteins are transferred to a membrane and probed.
Assay [3] concerns SFPQ. Nature of the assay: Coimmunoprecipitation of endogenous SFPQ from DRG lysate, Western blot. It counts as binding, rat. The conditions noted are these: DRG sensory neuron lysate.
For assay [4], the system named is HA-SFPQ. Nature of the assay: Coimmunoprecipitation of HA-SFPQ with KLC1/KIF5A constructs in HEK 293T cells. Particulars: Myc-KLC1 without C-terminal region vs WT, n = 4, P = 0.0033.

B1: KLC1: kinesin light chain 1 (protein)
chain: MHDNMSTMVYMKEEKLEKLTQDEIISKTKQVIQGLEALKNEHNSILQSLLETLKCLKKDDESNLVEEKSSMIRKSLEMLELGLSEAQVMMALSNHLNAVESEKQKLRAQVRRLCQENQWLRDELANTQQKLQKSEQSVAQLEEEKKHLEFMNQLKKYDDDISPSEDKDSDSSKEPLDDLFPNDEDDPGQGIQQQHSSAAAAAQQGGYEIPARLRTLHNLVIQYASQGRYEVAVPLCKQALEDLEKTSGHDHPDVATMLNILALVYRDQNKYKDAANLLNDALAIREKTLGRDHPAVAATLNNLAVLYGKRGKYKEAEPLCKRALEIREKVLGKDHPDVAKQLNNLALLCQNQGKYEEVEYYYQRALEIYQTKLGPDDPNVAKTKNNLASCYLKQGKFKQAETLYKEILTRAHEREFGSVDDENKPIWMHAEEREECKGKQKDGSSFGEYGGWYKACKVDSPTVTTTLKNLGALYRRQGKFEAAETLEEAALRSRKQGLDNVHKQRVAEVLNDPENVEKRRSRESLNVDVVKYESGPDGGEEVSMSVEWNGMRKMKLGLVK
With B1, in assay [1], the “relative abundance in SFPQ immunoprecipitate (in words)” value was “approximately twice as abundant”. For the same molecule, in assay [2], the “compartment localization (in words)” value is “localize to both CB and distal axon compartments”. In assay [3], the “coimmunoprecipitation with SFPQ (in words)” value (shortened to “coimmunoprecipitation”) is “preferentially coimmunoprecipitates”.

B2: KLC1 or its C-terminal mutant (ΔTail) (protein, UniProt P37285 1-560, looked up)
Kinesin light chain 1: MHDNMSTMVYMKEEKLEKLTQDEIISKTKQVIQGLEALKNEHNSILQSLLETLKCLKKDDESNLVEEKSSMIRKSLEMLELGLSEAQVMMALSNHLNAVESEKQKLRAQVRRLCQENQWLRDELANTQQKLQKSEQSVAQLEEEKKHLEFMNQLKKYDDDISPSEDKDSDSSKEPLDDLFPNDEDDPGQGIQQQHSSAAAAAQQGGYEIPARLRTLHNLVIQYASQGRYEVAVPLCKQALEDLEKTSGHDHPDVATMLNILALVYRDQNKYKDAANLLNDALAIREKTLGRDHPAVAATLNNLAVLYGKRGKYKEAEPLCKRALEIREKVLGKDHPDVAKQLNNLALLCQNQGKYEEVEYYYQRALEIYQTKLGPDDPNVAKTKNNLASCYLKQGKFKQAETLYKEILTRAHEREFGSVDDENKPIWMHAEEREECKGKQKDGSSFGEYGGWYKACKVDSPTVTTTLKNLGALYRRQGKFEAAETLEEAALRSRKQGLDNVHKQRVAEVLNDPENVEKRRSRESLNVDVVKYESGPDGGEEVSMSVEWNGMRKMKLGLVK
modifications: or C-terminal tail deletion mutant
Regarding B2, the “reduction of binding to SFPQ” value in assay [4] was roughly 50%.

B3: WT KIF5A: kinesin heavy chain KIF5A (protein, UniProt Q6QLM7 2-1027, looked up)
Kinesin heavy chain isoform 5A: AETNNECSIKVLCRFRPLNQAEILRGDKFIPIFQGDDSVIIGGKPYVFDRVFPPNTTQEQVYHACAMQIVKDVLAGYNGTIFAYGQTSSGKTHTMEGKLHDPQLMGIIPRIARDIFNHIYSMDENLEFHIKVSYFEIYLDKIRDLLDVTKTNLSVHEDKNRVPFVRGCTERFVSSPEEILDVIDEGKSNRHVAVTNMNEHSSRSHSIFLINIKQENIETEQKLSGKLYLADLAGSEKVSKTGAEGAVLDEAKNINKSLSALGNVISALAEGTKSYVPYRDSKMTRILQDSLGGNCRTTMFICCSPSSYNDAETKSTLMFGQRAKTIKNTASVNLELTAEQWKKKYEKEKEKTKAQKETIAKLEAELSRWRNGENVPETERLAGEDSALAAEICEETPVNDNSSIVVRIAPEERQKYEEEIRRLYKQLDDKDDEINQQSQLIEKLKQQMLDQEELLVSTRGDNEKVQRELSHLQSENDAAKEEVKEVLQALEELAVNYDQKSQEVEEKSQQNQLLVDELSQKVATMLSLESEPQRLQEVSGHQRKRIAEVLNGLMKDLSEFSVIVGNGEIKLPVEISGAIEEEFTVARLYISKIKSEVKSVVKRCRQLENLQVECHRKMEVTGRELSSCQLLISQHEAKIRSLTEYMQTVELKKRHLEESYDSLSDELAKLQAQETVHEVALKDKEPDTQDAEEVKKALELQMENHREAHHRQLARLRDEINEKQKTIDELKDLDQKLQLELEKLQADYERLKNEENEKSAKLQELTFLYERHEQSKQDLKGLEETVARELQTLHNLRKLFVQDVTTRVKKSAEMEPEDSGGIHSQKQKISFLENNLEQLTEVHKQLVRDNADLRCELPKLEKRLRATAERVKALEGALKEAKEGAMKDKRRYQQEVDRIKEAVRYKSSGKRGHSAQIAKPVRPGHYPASSPTNPYGTRSPECISYTNNLFQNYQNLHLQAAPSSTSDVYFASNGATSVAPLASYQKANTDNGNATDINDNRSDLPCGYEAEDPAKLFPLHQETAAS
For B3, in assay [1], the “relative abundance in SFPQ immunoprecipitate (in words)” value is on record as “approximately twice as abundant”. For the same molecule, the “compartment localization (in words)” value in assay [2] was “localize to both CB and distal axon compartments”. For the same molecule, the “coimmunoprecipitation” value in assay [3] is on record as “preferentially coimmunoprecipitates”.

B4: KIF3C: kinesin transporting RNA granules in neurons (protein, UniProt O55165 1-796, looked up)
Kinesin-like protein KIF3C: MASKTKASEALKVVARCRPLSRKEEAAGHEQILTMDVKLGQVTLRNPRAAPGELPKTFTFDAVYDASSKQADLYDETVRPLIDSVLQGFNGTVFAYGQTGTGKTYTMQGTWVEPELRGVIPNAFEHIFTHISRSQNQQYLVRASYLEIYQEEIRDLLSKEPGKRLELKENPETGVYIKDLSSFVTKNVKEIEHVMNLGNQARAVGSTHMNEVSSRSHAIFVITVECSERGSDGQDHIRVGKLNLVDLAGSERQNKAGPNTPGGPATQSTAGGGGGGGGTSGSGSSGERPKEASKINLSLSALGNVIAALAGNRSTHIPYRDSKLTRLLQDSLGGNAKTIMVATLGPASHSYDESLSTLRFANRAKNIKNKPRVNEDPKDTLLREFQEEIARLKAQLEKKGMLGKRPRRKSSRRKKAVSAPAGYPEGAVIEAWVAEEEDDNNNNHRPPQPTLEAALEKNMENYLQEQKERLEEEKAAIQDDRSLVSEEKQKLLEEKEKMLEDLKREQQATELLAAKYKAMESKLLIGGRNIMDHTNEQQKMLELKRQEIAEQKRREREMQQEMLLRDEETMELRGTYSSLQQEVEVKTKKLKKLYAKLQAVKAEIQDQHEEYIRVRQDLEEAQNEQTRELKLKYLIIENFIPPEEKNKIMNRLFLDCEEEQWKFQPLVPAGVNNSQMKKRPTSAVGYKRPISQYARVAMAMGSHPRYRAENIMFLELDVSPPAIFEMEFSHDQEQDPRVLHMERLMRLDSFLERPSTSKVRKSRSWCQSPQRPPPPSTVHASMASAPLHPATVVDHD
As for B4, in assay [3], the “coimmunoprecipitation” value is recorded as “none of these kinesins significantly coimmunoprecipitates with SFPQ”.

B5: KLC2: kinesin light chain 2 (protein, UniProt Q9H0B6 1-622, looked up)
Kinesin light chain 2: MAMMVFPREEKLSQDEIVLGTKAVIQGLETLRGEHRALLAPLVAPEAGEAEPGSQERCILLRRSLEAIELGLGEAQVILALSSHLGAVESEKQKLRAQVRRLVQENQWLREELAGTQQKLQRSEQAVAQLEEEKQHLLFMSQIRKLDEDASPNEEKGDVPKDTLDDLFPNEDEQSPAPSPGGGDVSGQHGGYEIPARLRTLHNLVIQYASQGRYEVAVPLCKQALEDLEKTSGHDHPDVATMLNILALVYRDQNKYKEAAHLLNDALAIREKTLGKDHPAVAATLNNLAVLYGKRGKYKEAEPLCKRALEIREKVLGKFHPDVAKQLSNLALLCQNQGKAEEVEYYYRRALEIYATRLGPDDPNVAKTKNNLASCYLKQGKYQDAETLYKEILTRAHEKEFGSVNGDNKPIWMHAEEREESKDKRRDSAPYGEYGSWYKACKVDSPTVNTTLRSLGALYRRQGKLEAAHTLEDCASRNRKQGLDPASQTKVVELLKDGSGRRGDRRSSRDMAGGAGPRSESDLEDVGPTAEWNGDGSGSLRRSGSFGKLRDALRRSSEMLVKKLQGGTPQEPPNPRMKRASSLNFLNKSVEEPTQPGGTGLSDSRTLSSSSMDLSRRSSLVG
With B5, the “compartment localization (in words)” value in assay [2] is “localize to both CB and distal axon compartments”.

B6: KIF5C: kinesin heavy chain KIF5C (protein, UniProt O60282 1-957, looked up)
Kinesin heavy chain isoform 5C: MADPAECSIKVMCRFRPLNEAEILRGDKFIPKFKGDETVVIGQGKPYVFDRVLPPNTTQEQVYNACAKQIVKDVLEGYNGTIFAYGQTSSGKTHTMEGKLHDPQLMGIIPRIAHDIFDHIYSMDENLEFHIKVSYFEIYLDKIRDLLDVSKTNLAVHEDKNRVPYVKGCTERFVSSPEEVMDVIDEGKANRHVAVTNMNEHSSRSHSIFLINIKQENVETEKKLSGKLYLVDLAGSEKVSKTGAEGAVLDEAKNINKSLSALGNVISALAEGTKTHVPYRDSKMTRILQDSLGGNCRTTIVICCSPSVFNEAETKSTLMFGQRAKTIKNTVSVNLELTAEEWKKKYEKEKEKNKTLKNVIQHLEMELNRWRNGEAVPEDEQISAKDQKNLEPCDNTPIIDNIAPVVAGISTEEKEKYDEEISSLYRQLDDKDDEINQQSQLAEKLKQQMLDQDELLASTRRDYEKIQEELTRLQIENEAAKDEVKEVLQALEELAVNYDQKSQEVEDKTRANEQLTDELAQKTTTLTTTQRELSQLQELSNHQKKRATEILNLLLKDLGEIGGIIGTNDVKTLADVNGVIEEEFTMARLYISKMKSEVKSLVNRSKQLESAQMDSNRKMNASERELAACQLLISQHEAKIKSLTDYMQNMEQKRRQLEESQDSLSEELAKLRAQEKMHEVSFQDKEKEHLTRLQDAEEMKKALEQQMESHREAHQKQLSRLRDEIEEKQKIIDEIRDLNQKLQLEQEKLSSDYNKLKIEDQEREMKLEKLLLLNDKREQAREDLKGLEETVSRELQTLHNLRKLFVQDLTTRVKKSVELDNDDGGGSAAQKQKISFLENNLEQLTKVHKQLVRDNADLRCELPKLEKRLRATAERVKALESALKEAKENAMRDRKRYQQEVDRIKEAVRAKNMARRAHSAQIAKPIRPGHYPASSPTAVHAIRGGGGSSSNSTHYQK
As to B6, the “compartment localization (in words)” value in assay [2] is “localize to both CB and distal axon compartments”.
